Experimental data: publication PMC8158962, “Modulation of fungal virulence through CRZ1 regulated F-BAR-dependent actin remodeling and endocytosis in chickpea infecting phytopathogen Ascochyta rabiei”

Target: T1, His-ArCRZ1 (Ascochyta rabiei, UniProt A0A163H1V7 1-755)
T1 sequence: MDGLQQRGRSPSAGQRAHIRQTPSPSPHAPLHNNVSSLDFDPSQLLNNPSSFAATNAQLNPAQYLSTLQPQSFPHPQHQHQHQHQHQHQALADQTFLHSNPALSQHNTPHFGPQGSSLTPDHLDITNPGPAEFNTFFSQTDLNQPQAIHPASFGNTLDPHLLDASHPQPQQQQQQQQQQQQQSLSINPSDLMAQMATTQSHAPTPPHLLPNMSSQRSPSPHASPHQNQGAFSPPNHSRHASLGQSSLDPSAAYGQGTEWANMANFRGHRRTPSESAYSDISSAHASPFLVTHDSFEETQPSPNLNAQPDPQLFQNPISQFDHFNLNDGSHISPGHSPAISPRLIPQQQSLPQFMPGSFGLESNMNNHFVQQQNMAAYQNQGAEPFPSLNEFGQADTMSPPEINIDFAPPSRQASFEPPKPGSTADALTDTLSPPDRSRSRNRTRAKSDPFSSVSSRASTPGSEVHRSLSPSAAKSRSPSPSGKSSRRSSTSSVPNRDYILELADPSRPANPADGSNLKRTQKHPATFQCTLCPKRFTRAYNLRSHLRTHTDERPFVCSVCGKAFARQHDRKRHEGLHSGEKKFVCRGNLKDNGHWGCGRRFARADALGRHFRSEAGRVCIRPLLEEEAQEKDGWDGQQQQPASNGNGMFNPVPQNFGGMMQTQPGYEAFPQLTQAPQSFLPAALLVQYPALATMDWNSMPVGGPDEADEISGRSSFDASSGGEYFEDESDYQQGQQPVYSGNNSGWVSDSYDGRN
Assay: EMSA; 15 mM HEPES pH 7.6, 0.2 mM MgCl2, 35 mM KCl, 1 mM DTT, 1% glycerol, 1 mg poly(dI-dC) (so in the source), 10 ng labelled DNA, 30 uL, 25 min, room temperature; 6% native PAGE
Settings: protein: recombinant; tags: His (pET28a(+)); label: 32P end label; blunt

B1: WT CDRE (GRF/GRR), 58 bp (dsDNA)
DNA 1: CTCCAGCCATCGAGCCCCACCACCAATTGGGCCGCCAGTGAGAGCCCCAAGGCCGTCC
DNA 2: GGACGGCCTTGGGGCTCTCACTGGCGGCCCAATTGGTGGTGGGGCTCGATGGCTGGAG
B1: binds.
